Test results reported in publication PMC4682175 (2015).

Target: T1, Neogenin (Mus musculus, UniProt P97798)
T1 chain: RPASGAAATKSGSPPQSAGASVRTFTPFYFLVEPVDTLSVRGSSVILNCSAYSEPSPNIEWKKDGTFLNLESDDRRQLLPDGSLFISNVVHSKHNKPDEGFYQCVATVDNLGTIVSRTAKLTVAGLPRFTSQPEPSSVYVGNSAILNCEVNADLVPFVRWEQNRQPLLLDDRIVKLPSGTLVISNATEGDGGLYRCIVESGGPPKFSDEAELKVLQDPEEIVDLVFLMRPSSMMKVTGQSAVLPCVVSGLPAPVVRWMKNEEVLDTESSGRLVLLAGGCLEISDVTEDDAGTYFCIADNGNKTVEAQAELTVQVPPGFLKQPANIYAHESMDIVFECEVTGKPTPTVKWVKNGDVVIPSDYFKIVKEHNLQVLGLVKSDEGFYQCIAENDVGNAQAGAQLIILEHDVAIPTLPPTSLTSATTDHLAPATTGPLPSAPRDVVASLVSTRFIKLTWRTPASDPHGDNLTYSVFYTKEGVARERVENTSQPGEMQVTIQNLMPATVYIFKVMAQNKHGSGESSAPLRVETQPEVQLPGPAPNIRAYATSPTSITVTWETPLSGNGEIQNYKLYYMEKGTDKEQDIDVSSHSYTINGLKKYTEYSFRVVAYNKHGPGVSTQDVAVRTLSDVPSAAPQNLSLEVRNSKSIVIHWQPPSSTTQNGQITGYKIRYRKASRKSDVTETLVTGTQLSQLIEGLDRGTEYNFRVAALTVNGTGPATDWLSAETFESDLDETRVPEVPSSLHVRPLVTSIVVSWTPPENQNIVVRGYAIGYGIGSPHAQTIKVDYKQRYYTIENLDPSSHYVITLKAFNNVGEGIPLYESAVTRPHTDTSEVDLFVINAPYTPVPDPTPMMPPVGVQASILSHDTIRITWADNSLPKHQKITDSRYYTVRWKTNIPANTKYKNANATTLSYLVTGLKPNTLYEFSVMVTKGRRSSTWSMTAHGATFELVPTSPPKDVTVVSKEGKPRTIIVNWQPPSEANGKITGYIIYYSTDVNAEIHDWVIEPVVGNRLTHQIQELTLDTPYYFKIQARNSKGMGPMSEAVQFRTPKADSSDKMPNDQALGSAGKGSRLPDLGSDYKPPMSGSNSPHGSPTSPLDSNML
Assay: saturation binding of draxin-AP to Neo1-transfected HEK293T cells, Scatchard analysis

B1: Draxin (protein)
chain: GTLASGSSARNLPETHSHLPSSALWVSQASHHGRRGLGKKDRGPGRPSRAQEGAVVTATKQASQMTLGQPPAGLLQNKELLLGLTLPYPEKEARSPAWERVKKRGREHKRRRDRLRLHRGRAAIRGPSSLMKKVEPSEDRMLEGTMEESSTSLAPTMFFLTMTDGATPTTEESRILPVTSLRPQTQPRSDGEVMPTLDMALFDWTDYEDLKPEVWPSAKKKEKHWSHFTSDGNETSPAEGDPCDHHQDCLPGTCCDLREHLCTPHNRGLNNKCFDDCMCMEGLRCYAKFHRNRRVTRRKGRCVEPETANGDQGSFINI
modifications: draxin alkaline phosphatase fusion
- Kd: 0.62 nM
